Laboratory results reported in patent publication US20230272055A1 (Incyte, published 2023).
Substitutions are numbered along the chain they refer to.

T1: human mutCALR on BaF3 cells stably expressing human MPL and human mutCALR (MPL-mutCALR cells) (human)
T1 construct: also called mutant calreticulin
T1 chain: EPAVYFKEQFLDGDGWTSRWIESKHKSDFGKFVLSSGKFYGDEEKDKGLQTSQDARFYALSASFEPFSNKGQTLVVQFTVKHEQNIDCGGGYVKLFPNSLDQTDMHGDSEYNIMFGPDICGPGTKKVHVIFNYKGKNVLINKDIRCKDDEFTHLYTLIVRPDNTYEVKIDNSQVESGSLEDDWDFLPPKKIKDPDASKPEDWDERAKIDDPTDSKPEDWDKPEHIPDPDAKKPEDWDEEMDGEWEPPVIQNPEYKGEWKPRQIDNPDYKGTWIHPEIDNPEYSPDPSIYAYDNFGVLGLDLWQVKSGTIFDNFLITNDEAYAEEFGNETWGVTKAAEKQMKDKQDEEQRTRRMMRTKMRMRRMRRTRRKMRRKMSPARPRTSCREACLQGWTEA

B1: anti-mutCALR antibody clone 56 (antibody, human IgG1, lambda, N297A, V domains shown)
VH: EVQLVQSGAEVKKPGASVKVSCKVSGYTLTELSMQWVRQAPGKGLEWMGGFDPDAGETMYAEKFQGRLTVTEDTSTDTVYMELRSLTSEDTALYFCATSPGYDFFDYWGQGTLVTVSS
VL: QSALTQPASVSGSPGQSITISCTGTSSDVGGYNYVSWYQQHPGKAPKLMIYEVSNRPSGVSNRFSGSNSGNTATLTINRVEAGDEADYYCQVWDSSNDLLIFGGGTKLTVLG
B2: anti-mutCALR antibody clone 177 (antibody, human IgG1, lambda, N297A, V domains shown)
VH: B1 VH with A55S, R84S, T87R, L93V
VL: SYVLTQPPSVSVAPGQTARITCGGSDIGDEIVHWYQQKPGQAPVLVVYDDSDRPSGIPERFSGSNSGNTATLTISRAQAGDEADYYCQVWDSSSDHLIFGGGTKLTVLG
B3: anti-mutCALR antibody clone 70 (antibody, human IgG1, lambda, N297A, V domains shown)
VH: B1 VH with A55D, R84S, T87R, L93V
VL: SYVLTQPPSVSVAPGKTARITCTGTSSDVGGYNYVSWYQQKPGQAPVLVVYEVSNRPSGIPERFSGSNSGNTATLTISRVEAGDEADYYCQVWDSSNDLLIFGGGTKLTVLG
B4: anti-mutCALR antibody clone 178 (antibody, human IgG1, lambda, N297A, V domains shown)
VH: B1 VH with A55E, R84S, T87R, L93V
VL: B2 VL
B5: anti-mutCALR antibody clone 179 (antibody, human IgG1, lambda, N297A, V domains shown)
VH: B1 VH with A55D, G56A, R84S, T87R, L93V
VL: B2 VL
B6: anti-mutCALR antibody clone 176 (antibody, human IgG1, lambda, N297A, V domains shown)
VH: B1 VH with R84S, T87R, L93V
VL: B2 VL
B7: anti-mutCALR antibody clone 1 (antibody, human IgG1, lambda, V domains shown)
VH: B1 VH with A55D
VL: SYVLTQPPSVSVAPGKTARITCGGNYIGSKSVHWYQQKPGQAPVLVVYDDGDRPSGIPARFSGSNSGNTATLTISRVEAGDEADYYCQVWDSISDHVVFGGGTKLTVLG
notes: human IgG1
B8: anti-mutCALR antibody clone 73 (antibody, human IgG1, lambda, N297A, V domains shown)
VH: B1 VH with A55E, R84S, T87R, L93V
VL: B3 VL
B9: anti-mutCALR antibody clone 62 (antibody, human IgG1, lambda, N297A, V domains shown)
VH: B1 VH with A55S, R84S, T87R, L93V
VL: B1 VL
B10: anti-mutCALR antibody clone 71 (antibody, human IgG1, lambda, N297A, V domains shown)
VH: B1 VH with R84S, T87R, L93V
VL: B3 VL
B11: anti-mutCALR antibody clone 8 (antibody, human IgG1, lambda, V domains shown)
VH: B1 VH with E1Q, A16S, A55D
VL: B7 VL with V3E, K16Q, Y26N, G51S, A59E, N68R, Y86H, I93S, V97L
notes: human IgG1
B12: anti-mutCALR antibody clone 72 (antibody, human IgG1, lambda, N297A, V domains shown)
VH: B1 VH with A55S, R84S, T87R, L93V
VL: B3 VL
B13: anti-mutCALR antibody clone 59 (antibody, human IgG1, lambda, N297A, V domains shown)
VH: B1 VH with A55D, G56A
VL: B1 VL
B14: anti-mutCALR antibody clone 74 (antibody, human IgG1, lambda, N297A, V domains shown)
VH: B1 VH with A55D, G56A, R84S, T87R, L93V
VL: B3 VL
B15: anti-mutCALR antibody clone 2 (antibody, human IgG1, lambda, V domains shown)
VH: B1 VH with A55D
VL: B7 VL with V3E, N25D, Y26N, G51S, A59E, I93S, S94I, V97L, V98I, L105V
notes: human IgG1
B16: anti-mutCALR antibody clone 3 (antibody, human IgG1, lambda, V domains shown)
VH: B1 VH with A55D, K63R
VL: B7 VL with K16Q, Y26N, G51S, A59E, S75N, I93S, S94N, H96L, V97L, V98I
notes: human IgG1
B17: anti-mutCALR antibody clone 68 (antibody, human IgG1, lambda, N297A, V domains shown)
VH: B1 VH with A55E
VL: B3 VL
B18: anti-mutCALR antibody clone 9 (antibody, human IgG1, lambda, V domains shown)
VH: B1 VH with A55D
VL: SYVLTQPPSVSVAPGQTARIPCGGNNIGSKSVHWYQQKPGQAPVLVVYDDRDRPSGIPERFSGSNSGNTATLTINRVEAGDEADYYCQVWDSSNDLLIFGGGTKLTVLG
notes: human IgG1
B19: anti-mutCALR antibody clone 5 (antibody, human IgG1, lambda, V domains shown)
VH: B1 VH with A55D
VL: SYVLTQPPSVSVAPGQTASITCVGTNFGSKNVHWYQQRPGQAPVLVVYDDSDRPSGIPERFSGSNSGNTATLTISRVEAGDEADYYCQVWDSSSDHLIFGGGTKLTVLG
notes: human IgG1
B20: anti-mutCALR antibody clone 58 (antibody, human IgG1, lambda, N297A, V domains shown)
VH: B1 VH with A55E
VL: B1 VL
B21: anti-mutCALR antibody clone 67 (antibody, human IgG1, lambda, N297A, V domains shown)
VH: B1 VH with A55S
VL: B3 VL
B22: anti-mutCALR antibody clone 64 (antibody, human IgG1, lambda, N297A, V domains shown)
VH: B1 VH with A55D, G56A, R84S, T87R, L93V
VL: B1 VL
B23: anti-mutCALR antibody clone 7 (antibody, human IgG1, lambda, V domains shown)
VH: B1 VH with A55D
VL: B19 VL with S75N, S94N, H96L
notes: human IgG1
B24: anti-mutCALR antibody clone 69 (antibody, human IgG1, lambda, N297A, V domains shown)
VH: B1 VH with A55D, G56A
VL: B3 VL
B25: anti-mutCALR antibody clone 66 (antibody, human IgG1, lambda, N297A, V domains shown)
VH: B1 VH
VL: B3 VL
B26: anti-mutCALR antibody clone 65 (antibody, human IgG1, lambda, N297A, V domains shown)
VH: B1 VH with A55D
VL: B3 VL
B27: anti-mutCALR antibody clone 63 (antibody, human IgG1, lambda, N297A, V domains shown)
VH: B1 VH with A55E, R84S, T87R, L93V
VL: B1 VL
B28: anti-mutCALR antibody clone 4 (antibody, human IgG1, lambda, V domains shown)
VH: B1 VH with A55D
VL: B18 VL with P21T, R51S
notes: human IgG1
B29: anti-mutCALR antibody clone 61 (antibody, human IgG1, lambda, N297A, V domains shown)
VH: B1 VH with R84S, T87R, L93V
VL: B1 VL
B30: anti-mutCALR antibody clone 41 (antibody, human IgG1, lambda, V domains shown)
VH: EVQLVQSGAEVKKPGASVKVSCKVSGYTLTELSMHWVRQAPGKGLEWMGLVDPEDGETIYAQKFQGRVTMTEDTSTDTAYMELSSLRSEDTAVYYCAREEWSGDGDDAFDIWGQGTMVTVSS
VL: QSVLTQPPSVSAAPGQKVTISCSGSSSNIGSYSVSWYQQLPGTAPKLLIYDNNKRPSGIPDRFSGSNSGTSATLGITGLQTGDEADYYCGTWDSSLSAWVFGGGTKLTVLG
notes: human IgG1
B31: anti-mutCALR antibody clone 42 (antibody, human IgG1, lambda, V domains shown)
VH: B30 VH
VL: B30 VL with N52D, G75S
notes: human IgG1

Tests used:
[1] = target: T1, human mutCALR on BaF3 cells stably …; assay: flow cytometry, BaF3 MPL-mutCALR cells
Method: On the day of the assay, cells were washed and resuspended in assay buffer. Approximately 200,000 cells/well were added to 96-well plates and stained with the indicated concentration of antibodies for 30 minutes on ice. Cells were then washed and stained with goat anti-human secondary conjugated to R-phycoerythrin (R-PE) (Jackson Immuno Research Laboratories) for 30 minutes on ice. The cells were then washed and analyzed by flow cytometry.

[2] = target: T2, Recombinant MBP-mutCALR Type 1 fusion protein (human); assay: SPR, IgG captured, 1:1 fit, Exp. 1
T2 construct: custom made at Cepter; also called recombinant mutCALR protein
Method: Experiment 1: Recombinant MBP-mutCALR Type 1 fusion protein was custom made at Cepter (cepterbiopartners.com). Data for the interaction of antibodies with recombinant MBP-mutCALR Type 1 fusion protein were collected at 25° C. on a Biacore 8K instrument (Cytiva, Marlborough, Mass.), and all reagents were obtained from Cytiva unless otherwise specified. The experiments were conducted using Tris-buffered saline (pH 7.2), 0.005% Surfactant P20, 1 mM CaCl₂) as running buffer. To prepare the capture surfaces, anti-human IgG (Fc) antibodies (Product #29234600) was amine-coupled onto a CM4 chip (Product #BR100534) under standard conditions using an Amine Coupling Kit (Product #BR100050). […] The kinetics parameters were obtained by applying 1:1 binding model to fit the data from multiple-cycle injection experiments using Biacore Insight Evaluation software.

Row | Binder | EC50 [1] [ng/mL] | MPL-mutCALR AUC [1] | Kd [2] [nM] | koff [2] [s⁻¹] | kon [2] [M⁻¹ s⁻¹]
1 | B1 | 6.9 | 64400 |  |  | 
2 | B2 | 3.4 | 52900 |  |  | 
3 | B3 | 1.9 | 84800 |  |  | 
4 | B4 | 4.1 | 63600 |  |  | 
5 | B5 | 5.8 | 60200 |  |  | 
6 | B6 | 3.1 | 48400 |  |  | 
7 | B7 |  |  | 14.2 | 0.0196 | 1.38e+06
8 | B8 | 2 | 67600 |  |  | 
9 | B9 | 5.4 | 58800 |  |  | 
10 | B10 | 9.7 | 55900 |  |  | 
11 | B11 |  |  | 4.58 | 0.00802 | 1.75e+06
12 | B12 | 3.3 | 58000 |  |  | 
13 | B13 | 7.7 | 75700 |  |  | 
14 | B14 | 2.2 | 81800 |  |  | 
15 | B15 |  |  | 7.58 | 0.0123 | 1.63e+06
16 | B16 |  |  | 3.45 | 0.00716 | 2.08e+06

Row | Binder | EC50 [1] [ng/mL] | MPL-mutCALR AUC [1] | Kd [2] [nM] | koff [2] [s⁻¹] | kon [2] [M⁻¹ s⁻¹]
17 | B17 | 3.3 | 68700 |  |  | 
18 | B18 |  |  | 2.99 | 0.00904 | 3.02e+06
19 | B19 |  |  | 4.33 | 0.00405 | 935000
20 | B20 | 8.6 | 69800 |  |  | 
21 | B21 | 8.1 | 63900 |  |  | 
22 | B22 | 7.2 | 73200 |  |  | 
23 | B23 |  |  | 3.83 | 0.00609 | 1.59e+06
24 | B24 | 2.1 | 71800 |  |  | 
25 | B25 | 5.8 | 65000 |  |  | 
26 | B26 | 5.9 | 81200 |  |  | 
27 | B27 | 5.5 | 69100 |  |  | 
28 | B28 |  |  | 4.33 | 0.00704 | 1.63e+06
29 | B29 | 6.3 | 62400 |  |  | 
30 | B30 |  |  | 4.88 | 0.00811 | 1.66e+06
31 | B31 |  |  | 6.97 | 0.00452 | 649000
